Measured values reported in patent publication US20140213513A1 (Sanofi, priority 2012, published 2014).
*1 amine or outer side, *2 acyl side, *3 side chain or, on linkers, in order; H or OH if unused. Where no end group is shown, it is not given here. Side-chain parts run from the residue outwards. [ ]: non-standard residue; d: D form. The star is where a group is joined. γGlu = O=C(O)[C@H](CCC(=O)[*:2])N[*:1]; Palmitoyl = CCCCCCCCCCCCCCCC(=O)*; Aib = CC(C)(N)C(=O)O

T1: human GIP receptor (human, UniProt P48546 22-466)
T1 sequence (looked up): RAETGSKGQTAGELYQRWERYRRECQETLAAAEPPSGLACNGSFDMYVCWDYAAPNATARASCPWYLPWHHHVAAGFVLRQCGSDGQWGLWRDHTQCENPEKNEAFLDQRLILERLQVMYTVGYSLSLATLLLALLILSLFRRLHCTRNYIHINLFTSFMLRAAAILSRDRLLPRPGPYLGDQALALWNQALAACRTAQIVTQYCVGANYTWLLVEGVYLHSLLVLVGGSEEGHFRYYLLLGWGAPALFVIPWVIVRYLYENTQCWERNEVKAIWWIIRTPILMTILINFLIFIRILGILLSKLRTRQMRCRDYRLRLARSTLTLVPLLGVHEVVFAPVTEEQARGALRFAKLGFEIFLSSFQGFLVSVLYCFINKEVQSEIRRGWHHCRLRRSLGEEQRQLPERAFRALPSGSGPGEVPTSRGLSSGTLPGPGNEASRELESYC


Assays:
Assay in all cases: cell-based or functional assay
human GIP receptor = molecular target: T1, human GIP receptor
human GLP-1 receptor = human GLP-1 receptor (human, UniProt P43220 24-463)
human glucagon receptor = human glucagon receptor (human, UniProt P47871 26-477)
Chain of human glucagon receptor (P47871 26-477): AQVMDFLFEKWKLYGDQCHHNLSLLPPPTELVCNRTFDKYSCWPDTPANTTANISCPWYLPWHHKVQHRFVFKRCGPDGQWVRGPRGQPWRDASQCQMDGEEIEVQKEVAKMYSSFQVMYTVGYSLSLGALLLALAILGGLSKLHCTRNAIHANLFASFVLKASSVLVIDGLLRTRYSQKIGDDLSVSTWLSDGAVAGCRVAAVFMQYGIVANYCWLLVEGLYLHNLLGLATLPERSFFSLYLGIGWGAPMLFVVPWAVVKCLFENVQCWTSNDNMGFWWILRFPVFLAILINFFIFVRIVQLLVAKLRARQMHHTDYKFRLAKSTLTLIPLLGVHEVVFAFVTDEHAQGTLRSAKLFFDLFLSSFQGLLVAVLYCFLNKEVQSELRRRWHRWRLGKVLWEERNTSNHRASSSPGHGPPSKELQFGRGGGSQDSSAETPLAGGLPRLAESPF

Binder	EC50 hGIP R (human GIP receptor) [nM]	EC50 hGLP-1 R (human GLP-1 receptor) [nM]	EC50 hGLUC R (human glucagon receptor) [nM]
Y[Aib]QGTFTSDLSKQK([γGlu-Palmitoyl])DSRAAQDFIEWLKAGGPSSGAPPPS-NH2 (N-terminus assumed; SMILES CCCCCCCCCCCCCCCC(=O)N[C@@H](CCC(=O)NCCCC[C@H](NC(=O)[C@H](CCC(N)=O)NC(=O)[C@H](CCCCN)NC(=O)[C@H](CO)NC(=O)[C@H](CC(C)C)NC(=O)[C@H](CC(=O)O)NC(=O)[C@H](CO)NC(=O)[C@@H](NC(=O)[C@H](Cc1ccccc1)NC(=O)[C@@H](NC(=O)CNC(=O)[C@H](CCC(N)=O)NC(=O)C(C)(C)NC(=O)[C@@H](N)Cc1ccc(O)cc1)[C@@H](C)O)[C@@H](C)O)C(=O)N[C@@H](CC(=O)O)C(=O)N[C@@H](CO)C(=O)N[C@@H](CCCNC(=N)N)C(=O)N[C@@H](C)C(=O)N[C@@H](C)C(=O)N[C@@H](CCC(N)=O)C(=O)N[C@@H](CC(=O)O)C(=O)N[C@@H](Cc1ccccc1)C(=O)N[C@H](C(=O)N[C@@H](CCC(=O)O)C(=O)N[C@@H](Cc1c[nH]c2ccccc12)C(=O)N[C@@H](CC(C)C)C(=O)N[C@@H](CCCCN)C(=O)N[C@@H](C)C(=O)NCC(=O)NCC(=O)N1CCC[C@H]1C(=O)N[C@@H](CO)C(=O)N[C@@H](CO)C(=O)NCC(=O)N[C@@H](C)C(=O)N1CCC[C@H]1C(=O)N1CCC[C@H]1C(=O)N1CCC[C@H]1C(=O)N[C@@H](CO)C(N)=O)[C@@H](C)CC)C(=O)O) [exendin-4 peptide analogue SEQ ID NO: 66]	0.0826	0.0036	0.0052
Y[Aib]QGTFTSDLSIQK([γGlu-Palmitoyl])EKAAA[Aib]EFIEWLKNTGPSSGAPPPS-NH2 (N-terminus assumed; SMILES CCCCCCCCCCCCCCCC(=O)N[C@@H](CCC(=O)NCCCC[C@H](NC(=O)[C@H](CCC(N)=O)NC(=O)[C@@H](NC(=O)[C@H](CO)NC(=O)[C@H](CC(C)C)NC(=O)[C@H](CC(=O)O)NC(=O)[C@H](CO)NC(=O)[C@@H](NC(=O)[C@H](Cc1ccccc1)NC(=O)[C@@H](NC(=O)CNC(=O)[C@H](CCC(N)=O)NC(=O)C(C)(C)NC(=O)[C@@H](N)Cc1ccc(O)cc1)[C@@H](C)O)[C@@H](C)O)[C@@H](C)CC)C(=O)N[C@@H](CCC(=O)O)C(=O)N[C@@H](CCCCN)C(=O)N[C@@H](C)C(=O)N[C@@H](C)C(=O)N[C@@H](C)C(=O)NC(C)(C)C(=O)N[C@@H](CCC(=O)O)C(=O)N[C@@H](Cc1ccccc1)C(=O)N[C@H](C(=O)N[C@@H](CCC(=O)O)C(=O)N[C@@H](Cc1c[nH]c2ccccc12)C(=O)N[C@@H](CC(C)C)C(=O)N[C@@H](CCCCN)C(=O)N[C@@H](CC(N)=O)C(=O)N[C@H](C(=O)NCC(=O)N1CCC[C@H]1C(=O)N[C@@H](CO)C(=O)N[C@@H](CO)C(=O)NCC(=O)N[C@@H](C)C(=O)N1CCC[C@H]1C(=O)N1CCC[C@H]1C(=O)N1CCC[C@H]1C(=O)N[C@@H](CO)C(N)=O)[C@@H](C)O)[C@@H](C)CC)C(=O)O) [exendin-4 peptide analogue SEQ ID NO: 12]	0.008	0.0055	0.139
Y[Aib]QGTFTSDLSIQK([γGlu-Palmitoyl])EKRYA[Aib]EFIEWLKNTGPSSGAPPPS-NH2 (N-terminus assumed; SMILES CCCCCCCCCCCCCCCC(=O)N[C@@H](CCC(=O)NCCCC[C@H](NC(=O)[C@H](CCC(N)=O)NC(=O)[C@@H](NC(=O)[C@H](CO)NC(=O)[C@H](CC(C)C)NC(=O)[C@H](CC(=O)O)NC(=O)[C@H](CO)NC(=O)[C@@H](NC(=O)[C@H](Cc1ccccc1)NC(=O)[C@@H](NC(=O)CNC(=O)[C@H](CCC(N)=O)NC(=O)C(C)(C)NC(=O)[C@@H](N)Cc1ccc(O)cc1)[C@@H](C)O)[C@@H](C)O)[C@@H](C)CC)C(=O)N[C@@H](CCC(=O)O)C(=O)N[C@@H](CCCCN)C(=O)N[C@@H](CCCNC(=N)N)C(=O)N[C@@H](Cc1ccc(O)cc1)C(=O)N[C@@H](C)C(=O)NC(C)(C)C(=O)N[C@@H](CCC(=O)O)C(=O)N[C@@H](Cc1ccccc1)C(=O)N[C@H](C(=O)N[C@@H](CCC(=O)O)C(=O)N[C@@H](Cc1c[nH]c2ccccc12)C(=O)N[C@@H](CC(C)C)C(=O)N[C@@H](CCCCN)C(=O)N[C@@H](CC(N)=O)C(=O)N[C@H](C(=O)NCC(=O)N1CCC[C@H]1C(=O)N[C@@H](CO)C(=O)N[C@@H](CO)C(=O)NCC(=O)N[C@@H](C)C(=O)N1CCC[C@H]1C(=O)N1CCC[C@H]1C(=O)N1CCC[C@H]1C(=O)N[C@@H](CO)C(N)=O)[C@@H](C)O)[C@@H](C)CC)C(=O)O) [exendin-4 peptide analogue SEQ ID NO: 13]	0.0263	0.0141	0.0202
Y[Aib]QGTFTSDLSIQK([γGlu-Palmitoyl])EKRAA[Aib]EFIEWLKA[dA]GPSSGAPPPS-NH2 (N-terminus assumed; SMILES CCCCCCCCCCCCCCCC(=O)N[C@@H](CCC(=O)NCCCC[C@H](NC(=O)[C@H](CCC(N)=O)NC(=O)[C@@H](NC(=O)[C@H](CO)NC(=O)[C@H](CC(C)C)NC(=O)[C@H](CC(=O)O)NC(=O)[C@H](CO)NC(=O)[C@@H](NC(=O)[C@H](Cc1ccccc1)NC(=O)[C@@H](NC(=O)CNC(=O)[C@H](CCC(N)=O)NC(=O)C(C)(C)NC(=O)[C@@H](N)Cc1ccc(O)cc1)[C@@H](C)O)[C@@H](C)O)[C@@H](C)CC)C(=O)N[C@@H](CCC(=O)O)C(=O)N[C@@H](CCCCN)C(=O)N[C@@H](CCCNC(=N)N)C(=O)N[C@@H](C)C(=O)N[C@@H](C)C(=O)NC(C)(C)C(=O)N[C@@H](CCC(=O)O)C(=O)N[C@@H](Cc1ccccc1)C(=O)N[C@H](C(=O)N[C@@H](CCC(=O)O)C(=O)N[C@@H](Cc1c[nH]c2ccccc12)C(=O)N[C@@H](CC(C)C)C(=O)N[C@@H](CCCCN)C(=O)N[C@@H](C)C(=O)N[C@H](C)C(=O)NCC(=O)N1CCC[C@H]1C(=O)N[C@@H](CO)C(=O)N[C@@H](CO)C(=O)NCC(=O)N[C@@H](C)C(=O)N1CCC[C@H]1C(=O)N1CCC[C@H]1C(=O)N1CCC[C@H]1C(=O)N[C@@H](CO)C(N)=O)[C@@H](C)CC)C(=O)O) [exendin-4 peptide analogue SEQ ID NO: 14]	0.0062	0.0065	0.0623
Y[Aib]QGTFTSDLSIQK([γGlu-Palmitoyl])EQRAA[Aib]EFIEWLKNTGPSSGAPPPS-NH2 (N-terminus assumed; SMILES CCCCCCCCCCCCCCCC(=O)N[C@@H](CCC(=O)NCCCC[C@H](NC(=O)[C@H](CCC(N)=O)NC(=O)[C@@H](NC(=O)[C@H](CO)NC(=O)[C@H](CC(C)C)NC(=O)[C@H](CC(=O)O)NC(=O)[C@H](CO)NC(=O)[C@@H](NC(=O)[C@H](Cc1ccccc1)NC(=O)[C@@H](NC(=O)CNC(=O)[C@H](CCC(N)=O)NC(=O)C(C)(C)NC(=O)[C@@H](N)Cc1ccc(O)cc1)[C@@H](C)O)[C@@H](C)O)[C@@H](C)CC)C(=O)N[C@@H](CCC(=O)O)C(=O)N[C@@H](CCC(N)=O)C(=O)N[C@@H](CCCNC(=N)N)C(=O)N[C@@H](C)C(=O)N[C@@H](C)C(=O)NC(C)(C)C(=O)N[C@@H](CCC(=O)O)C(=O)N[C@@H](Cc1ccccc1)C(=O)N[C@H](C(=O)N[C@@H](CCC(=O)O)C(=O)N[C@@H](Cc1c[nH]c2ccccc12)C(=O)N[C@@H](CC(C)C)C(=O)N[C@@H](CCCCN)C(=O)N[C@@H](CC(N)=O)C(=O)N[C@H](C(=O)NCC(=O)N1CCC[C@H]1C(=O)N[C@@H](CO)C(=O)N[C@@H](CO)C(=O)NCC(=O)N[C@@H](C)C(=O)N1CCC[C@H]1C(=O)N1CCC[C@H]1C(=O)N1CCC[C@H]1C(=O)N[C@@H](CO)C(N)=O)[C@@H](C)O)[C@@H](C)CC)C(=O)O) [exendin-4 peptide analogue SEQ ID NO: 15]	0.0114	0.0069	0.054
